Assay results: patent US20200222478A1 (published 2020)

Tests used:
Test in all cases: UV peptide exchange + HLA class I ELISA
HLA-A*01:01 = target: T1, HLA-A*01:01 (human, biotinylated heavy chain)
T1 construct: Conditional HLA class I complex first loaded with a UV-labile peptide, which is cleaved by UV and exchanged for the test peptide; captured on streptavidin by its biotinylated heavy chain; also called conditional HLA class I complex
Protocol: (§1) The HLA class I ELISA is an enzyme immunoassay based on the detection of beta2-microglobulin (B2M) of (peptide-stabilized) HLA class I complexes. To this end streptavidin was bound onto polystyrene microtiter wells. […] Non-bound material was removed by washing. Subsequently, horseradish peroxidase (HRP)-conjugated antibody to human B2M was added. […] In the latter case B2M was removed during the washing step. After removal of non-bound HRP conjugate by washing, a substrate solution was added to the wells. A coloured product formed in proportion to the amount of intact HLA complex present in the samples. After the reaction was terminated by the addition of a stop solution, absorbance was measured in a microtiter plate reader.

HLA-A*02:01 = target: T2, HLA-A*02:01 (human, biotinylated heavy chain)
T2 construct: Conditional HLA class I complex first loaded with a UV-labile peptide, exchanged for the test peptide after UV; also called conditional HLA class I complex
Protocol: as §1

HLA-A*03:01 = target: T3, HLA-A*03:01 (human, biotinylated heavy chain)
T3 construct: Conditional HLA class I complex first loaded with a UV-labile peptide, exchanged for the test peptide after UV; also called conditional HLA class I complex
Protocol: as §1

HLA-A*24:02 = target: T4, HLA-A*24:02 (human, biotinylated heavy chain)
T4 construct: Conditional HLA class I complex first loaded with a UV-labile peptide, exchanged for the test peptide after UV; also called conditional HLA class I complex
Protocol: as §1

HLA-B*07:02 = target: T5, HLA-B*07:02 (human, biotinylated heavy chain)
T5 construct: Conditional HLA class I complex first loaded with a UV-labile peptide, exchanged for the test peptide after UV; also called conditional HLA class I complex
Protocol: as §1

HLA-B*08:01 = target: T6, HLA-B*08:01 (human, biotinylated heavy chain)
T6 construct: Conditional HLA class I complex first loaded with a UV-labile peptide, exchanged for the test peptide after UV; also called conditional HLA class I complex
Protocol: as §1

Binder	exchange rate vs Pos peptide (HLA-A*01:01) [%]	exchange rate vs Pos peptide (HLA-A*02:01) [%]	exchange rate vs Pos peptide (HLA-A*03:01) [%]	exchange rate vs Pos peptide (HLA-A*24:02) [%]	exchange rate vs Pos peptide (HLA-B*07:02) [%]	exchange rate vs Pos peptide (HLA-B*08:01) [%]
NSKMALNSL [P35 9-mer peptide (TMPRSS2-ERG fusion)]	2.5	12.5	4.2	0.2	12.1	13.7
NMVENGCYL [P59 9-mer peptide (FOXA1 (F254V))]	2.2	11.9	4.5	-0.5	7.5	5.5
GVLRRLLCR [P37 9-mer peptide (TSTD1-F11R fusion)]	1.4	12.5	6.4	-0.1	–	3.3
FPVGAEGTF [P27 9-mer peptide (FAM126B-ORC2 fusion)]	4.8	10	4.5	0.7	7.8	6.4
IQYSCMGLM [P50 9-mer peptide (AR (W742C))]	2.3	8.8	5.5	0.1	10.4	4.7
FFKRAAEGF [P77 9-mer peptide (AR-V3 splice variant)]	1.9	–	2.8	1.7	14.2	3.4
STRRAVRRM (Synthetic 9-mer fragment) [P16 9-mer peptide (MSMB-NCOA4 fusion)]	5.5	10.4	6.1	0.8	13.7	6.2
